Laboratory results from the supplement of paper PMC12042874.
± gives the uncertainty stated by the source.

Test: amyloid nucleation score (Sup35N fusion, yeast selection) (log enrichment); library NNK1; higher = more nucleation; inactive = no reads after selection
Procedure, shortened: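 Growth for 7 days at 30°C on medium lacking adenine and uracil followed a 24-hour induction with 100 μM copper sulfate of psi-negative yeast expressing peptides of 20 random codons fused to Sup35N. Input and output plasmid inserts were sequenced with Illumina, and sequences with under 100 input reads were excluded. Nucleation score is the DiMSum log enrichment of output over input reads, centred on the mode score of non-aggregating sequences.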

| Substance | amyloid nucleation score |
| --- | --- |
| RMLTARNGLGMMRL | -0.162 ± 1.1 |
| RMMVPYNHFYKSLWSGSTAY | 0.959 ± 0.68 |
| RMVNKTECTRRRIITTSNWI | 0.869 ± 0.81 |
| RMVTTIIERVSIVCMKPSYR | 1.35 ± 0.88 |
| RNASIRVTSQVCYVNS | 1.3 ± 0.27 |
| RNCFMGRTVNSVSNYVESSW | inactive |
| RNELTVFGLISPWESVFNLG | inactive |
| RNHCVYLECFDLVNHWMPKD | -0.24 ± 0.64 |
| RNMVSLRHSEDVICVQDTTP | -0.729 ± 0.34 |
| RNNEDGRLKDRRRGLSHGQG | -0.531 ± 0.31 |
| RNSMGLLAVEDVC | -1.16 ± 0.61 |
| RNSRAMIFEMHVVGLWWQSC | -0.538 ± 2.1 |
| RNTRTDSSTQTLLIVSHH | 0.011 ± 0.51 |
| RNTVQYVFYPQDLWWSAGVQ | 5.429 ± 0.048 |
| RNVLWMILMYRCRSGGLCNG | 0.737 ± 0.52 |
| RNYFCIMYRYRCCKV | 4.23 ± 0.085 |
| RPHSGVIDDL | 0.349 ± 0.51 |
| RPKHTGTINYKHVHTNYVEG | 1.36 ± 0.47 |
| RPLVRQPGEDYIFGLSSMCL | -0.203 ± 0.49 |
| RPMTVSKEAAKSDGCQKLNT | -0.634 ± 0.48 |
| RPNSYGSLWRERIGLIYTYE | 1.33 ± 0.79 |
| RQFRIGNYENFATREWALGL | 1.7 ± 0.14 |
| RQGLGAVVNENV | 0.137 ± 0.43 |
| RQGPGRLHSTCKTL | -0.257 ± 1.4 |
| RQNVQWR | 1.86 ± 0.62 |

| Substance | amyloid nucleation score |
| --- | --- |
| RQYDMDLVWKRSQNARKRS | 0.033 ± 0.7 |
| RRARFFFRGYY | 6.12 ± 0.078 |
| RRAYIYWNRTCFFLVILLFQ | 0.538 ± 0.84 |
| RRLKETKT | inactive |
| RRLTLYANFMRLEILSLNVN | 0.146 ± 0.43 |
| RRMVTCLQLIVRNLRSCACC | inactive |
| RRRMFSCLDPEVWEVQRGRV | -0.348 ± 0.68 |
| RRSPGYMDLCWNGWFGRAVR | 0.207 ± 0.5 |
| RRSQCSVEPGVWHRVRSFLV | 0.35 ± 0.77 |
| RRSYVSSEMNTSKRKSCPLS | 0.659 ± 0.45 |
| RRWGFRAERVL | 0.269 ± 0.61 |
| RRYFSLYLAGSLELMFAWVM | -1.79 ± 2.7 |
| RSFNYVLSTL | 0.45 ± 0.42 |
| RSGIILLVGVS | -0.655 ± 0.68 |
| RSGMFMGDWYSAAWKGKTSS | 0.137 ± 0.31 |
| RSGSLCGFLREKKVRNTFWV | -0.376 ± 0.59 |
| RSPIGGLLWINLRSPACEWG | inactive |
| RSRGCPRIFNGAKC | -0.392 ± 0.23 |
| RSSSYNSLIRKISDKLVGAA | 1.09 ± 0.56 |
| RSVYSDLSQTYRLQDFFETM | -1.69 ± 2.4 |
| RSYESCRAWLDEDGSVPIEC | 1 ± 0.49 |
| RSYSNPLSSVSLSNYSFGVY | -0.353 ± 0.36 |
| RTCHDWVIEGSMRILTARIM | -1.29 ± 1.8 |
| RTDLGVRIKF | 0.77 ± 0.55 |
| RTDWYGEDWHYV | -1.31 ± 1.4 |

| Substance | amyloid nucleation score |
| --- | --- |
| RTEVIKMNLG | -0.085 ± 0.42 |
| RTKLVEHSMFCNGGEKRHTP | 0.574 ± 0.56 |
| RTRLFHDLLLCAAHIRLRIR | 0.133 ± 0.38 |
| RTSLNLNIRNTWAKWLGAEF | 4.29 ± 0.1 |
| RTSLSLSKVAFNWMFQRYSS | 0.181 ± 1 |
| RVAYSGEL | 0.196 ± 0.83 |
| RVDHVGRGQSREGGPDAGRV | 0.217 ± 0.26 |
| RVFLQTGWVCGVRHANNRLR | -0.006 ± 0.87 |
| RVFQSNPCGT | 0.109 ± 1.4 |
| RVGAPFNLVRSCSGATLCEV | -0.023 ± 0.63 |
| RVGESVI | 0.348 ± 0.55 |
| RVGKYDLKSRDLGVGVDGVG | 0.586 ± 0.29 |
| RVGQSCCDFT | -0.047 ± 1.1 |
| RVILARHHPDDCMGLR | -0.26 ± 0.39 |
| RVITYSV | -0.016 ± 1.4 |
| RVKEPFRTYSRTALMC | 0.306 ± 0.41 |
| RVKYAGGPIGYLFCLWVLCW | -0.895 ± 1.5 |
| RVNLKGWKRHSIRRSNMYRV | inactive |
| RVSFQIVTVGWC | -1.13 ± 1.2 |
| RVSMVEVNLIYYMLPGHA | -0.125 ± 0.54 |
| RVSVDRPQRVGTGSPCCGGD | 2.77 ± 0.11 |
| RVTDLYFASGGQLMQRSVLL | 0.331 ± 0.6 |
| RVTFLWLCLYQGMVALVNSP | -0.156 ± 0.84 |
| RVVMLCLVCLFGVRGS | 0.827 ± 0.52 |
| RVVRKPCFPGVGRILSADLA | 0.958 ± 0.59 |

| Substance | amyloid nucleation score |
| --- | --- |
| RWDYDWNQVSCNDSRIGKLT | 0.565 ± 0.61 |
| RWGDHKQC | 0.041 ± 0.41 |
| RWNFFTFWFLW | 0.048 ± 0.46 |
| RWPDQCLLMLWMVLLFPSWE | -0.552 ± 0.28 |
| RWQAFGTELYGTSWSFREYG | 0.148 ± 0.47 |
| RWSLAWKIMCEL | 0.055 ± 0.3 |
| RWYVEPSSMFLSRLDGLFYK | -0.702 ± 1.9 |
| RYDSRFALPLDLS | -0.245 ± 0.45 |
| RYFLEMISRYISRN | inactive |
| RYGAESELTPRSASHGYWKF | -0.313 ± 1.1 |
| RYICSYCYALCGFGDYYGGK | 0.24 ± 0.34 |
| RYLDSLYKPRYYYQMVAIYG | 0.004 ± 0.41 |
| RYLIPTYF | -1.76 ± 0.57 |
| RYMDMLLRTDWDWLVSQCRF | -0.344 ± 0.33 |
| RYNCVDV | -0.765 ± 0.52 |
| RYNMPFYRDRRFCFFEKGLG | -0.077 ± 0.77 |
| RYPPG | -0.077 ± 1.1 |
| RYSFLANGASSFGCVVLFSL | 0.503 ± 0.93 |
| RYSGFLSVSLL | -0.087 ± 1 |
| RYSYFSSASCLRYRAPKGRG | 0.098 ± 0.32 |
| RYTEAASICRLVLGGQGVRI | -0.155 ± 0.96 |
| RYTIDLMSFNIKFWSHTLLH | -0.869 ± 1.5 |
| RYVNRT | -0.497 ± 1.2 |
| RYVTDSGVGSIPRYLIKCSR | -0.111 ± 0.42 |
| RYWLYVKFGWYLTDGFYSGS | 0.665 ± 0.29 |

| Substance | amyloid nucleation score |
| --- | --- |
| RYYLISEPILWIYGY | -0.031 ± 0.33 |
| RYYNFFMGLTWG | -0.395 ± 0.48 |
| RYYRVLLKFVLLSLVCTRYA | 0.578 ± 0.19 |
| SAAVGLLVHQYRSSELQLFN | 0.136 ± 1 |
| SADPFVFVALQWNHGVGSWR | 4.06 ± 0.069 |
| SADPSNYRERIFLKLMKLHG | -0.514 ± 0.37 |
| SAFSLIGLIVMNAGK | 6.04 ± 0.076 |
| SAILVLFEVHFMAPLLCHYL | 0.208 ± 0.42 |
| SALHVHRVKGSRREVSRDT | -0.072 ± 0.31 |
| SALSGWVANSCYEVRGLRNV | inactive |
| SANMKYRTLKQSLG | 0.176 ± 0.52 |
| SANRTHNWY | -0.451 ± 0.44 |
| SAPIDISMQLC | -0.18 ± 1.7 |
| SARHSMAEAMEYYIFGWVPR | -1.16 ± 1.2 |
| SAVQGCNGRCCYFGRGWWSG | 3.4 ± 0.083 |
| SCDFILLLAVT | 0.352 ± 0.36 |
| SCDMAEFSEDLTLCLLNHK | -0.651 ± 1.7 |
| SCGCYKSSLVNLL | 0.328 ± 0.9 |
| SCGLTCDAEYGRGFPGLCMM | 0.001 ± 1.1 |
| SCGNNYTSV | -0.236 ± 0.2 |
| SCKLIDRAILICWRSPTALV | 0.109 ± 1.6 |
| SCLPDQMKVVVPLMWLKFSR | -0.266 ± 0.33 |
| SCLYQGCYLNCVIDIMGCGL | 5.83 ± 0.089 |
| SCPGK | 0.001 ± 0.44 |
| SCPVPKLLAIGLSHVRSFGF | -0.47 ± 0.42 |

| Substance | amyloid nucleation score |
| --- | --- |
| SCPWLDSSLCFMNVGVLIYK | 3.37 ± 0.062 |
| SCQATLLFLSYSSNVGLIST | -0.267 ± 1.1 |
| SCSLITQGFRYPWLIYHRCY | 0.436 ± 0.93 |
| SCSPGTYSWFNWWYKSPGVE | -0.021 ± 0.65 |
| SCSYLSKYTYRREMVYGNEV | 0.002 ± 0.22 |
| SCTPWAVLFMLKSALGSLRG | 0.708 ± 0.71 |
| SCVLRRNSHRIMDSYPRYGQ | 0.151 ± 0.29 |
| SDAGARKIIFCFEIITQHPV | -0.235 ± 0.42 |
| SDASHHHRYRESHDYCFFRK | 0.272 ± 0.4 |
| SDFTIINFQYFLASCCTGYV | 7.602 ± 0.048 |
| SDIMGTVLSYFGINLVYAPC | inactive |
| SDKLTRFSTRVFR | -0.586 ± 0.39 |
| SDLMWVLSCESLRITHRLVG | 1.93 ± 0.56 |
| SDMYIL | 0.807 ± 0.43 |
| SDNTMSPKLCLMASWVRIST | 0.418 ± 0.23 |
| SDNVSRLRILDR | 1.93 ± 0.47 |
| SDRNERSVLSTCFGGCVPTG | 1.14 ± 0.24 |
| SDVLYIFTYMDKCQRSRLGV | 0.096 ± 0.26 |
| SDVWGWWGRSRVTADYFADV | -1.17 ± 1.7 |
| SELIAQDMPQIENLTVDAAW | -0.38 ± 0.35 |
| SEMGYPGWTGKERKRLSNWA | -0.989 ± 0.8 |
| SEQSMTY | inactive |
| SETQNRLS | -0.024 ± 0.33 |
| SFAADLFPRLVKACYSGILM | -0.413 ± 1.5 |
| SFCAYFVAGIAGNIRVS | 0.098 ± 0.42 |

| Substance | amyloid nucleation score |
| --- | --- |
| SFCMMLVSLVFSSKKISHHA | 0.877 ± 0.49 |
| SFDRCCRGFAWISYGEQTAY | 0.219 ± 0.53 |
| SFFGFMVMTSRDDRFRLQ | 3.04 ± 0.085 |
| SFFLLPMWLIVGSRGHQRRT | inactive |
| SFKWLGTFRYSYTKSTEHVW | -0.534 ± 1.2 |
| SFLNINPRQFSWIYCPLVVY | 2.94 ± 0.23 |
| SFSIN | 0.238 ± 0.29 |
| SFSSPHLPYTCGSSIG | 0.258 ± 0.66 |
| SFSTKPTCRPPILHSLERVT | 3.62 ± 0.064 |
| SFVCRCFSMCNGEILFLIPY | 0.644 ± 1 |
| SGAGVGSPVVKELSWFKLKV | 0.331 ± 0.77 |
| SGAPESYGDTNRRIVSSCFL | inactive |
| SGAPRSCFNHSVFRMRASCL | 0.114 ± 1.4 |
| SGAVCIQALKVDTQCFADMI | -0.413 ± 0.38 |
| SGGWTSLDGDMSCSSVTYLV | -0.703 ± 0.84 |
| SGHDGARVVMRRILYTSKSG | 0.291 ± 0.34 |
| SGIRLM | -1.32 ± 1.8 |
| SGKYAFLFLVYCTGVLMKCW | -1.17 ± 1.7 |
| SGLFMWYGSQTPYNIMMKQK | inactive |
| SGLFPVLGEHGNHRVSGSI | -1.4 ± 1.6 |
